Test results from publication PMC3683130.

Target: FLAG-tagged PUD-1 (C. elegans)
Experiment: affinity purification with mass spectrometry; anti-FLAG IP (M2 beads) from worms with single-copy FLAG::PUD-1, N2 as control; eluted with 3xFLAG peptide; silver-stained bands cut and identified by LC-MS/MS

FLAG-tagged PUD-1 (C. elegans), sequence (main, as listed by the source): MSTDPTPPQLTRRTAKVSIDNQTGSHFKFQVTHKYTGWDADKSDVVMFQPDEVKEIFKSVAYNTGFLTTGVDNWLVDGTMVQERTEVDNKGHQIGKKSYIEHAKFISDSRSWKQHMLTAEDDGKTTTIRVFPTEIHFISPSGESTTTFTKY

stoichiometry N: 1
Substance: Endogenous PUD-2 (natural protein)
